In publication PMC3900414:

Target: T1, hPus1 (79-408) (Homo sapiens, UniProt Q9Y606 79-408)
T1 sequence: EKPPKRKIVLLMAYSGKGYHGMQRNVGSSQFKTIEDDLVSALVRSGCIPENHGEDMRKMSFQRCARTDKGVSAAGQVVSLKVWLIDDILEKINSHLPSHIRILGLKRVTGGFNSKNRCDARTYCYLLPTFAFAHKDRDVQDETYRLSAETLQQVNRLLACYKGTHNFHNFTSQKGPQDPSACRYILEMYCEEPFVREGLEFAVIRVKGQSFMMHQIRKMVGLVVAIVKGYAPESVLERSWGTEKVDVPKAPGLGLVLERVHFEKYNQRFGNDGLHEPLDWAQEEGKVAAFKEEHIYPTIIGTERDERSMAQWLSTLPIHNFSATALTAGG
Assay: size exclusion chromatography

GAUGGACUUGAAAUCCAUUGGCGCAGGUUCGAAUCCUGC (structured_RNA) [minimal tRNASer (nt 26-65), unlabeled]
binding result: binds
